US20230174635A1 (UCB, published 2023)
Residue numbers refer to the chain shown, from its start.

B1: Ab7326 (antibody, V domains shown)
VH: QVQLVESGAEVKKPGATVKISCKVSGYTFTDYYMHWVQQAPGKGLEWMGLVDPEDGETIYAEKFQGRVTITADTSTDTAYMELSSLRSEDTAVYYCATDARGSGSYYPNHFDYWGQGTLVTVSS
VL: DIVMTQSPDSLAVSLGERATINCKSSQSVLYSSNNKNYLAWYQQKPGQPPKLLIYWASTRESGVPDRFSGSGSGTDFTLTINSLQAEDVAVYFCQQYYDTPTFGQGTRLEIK
B2: truncated human Gremlin-1 with N-terminal 6His-TEV tag (ligand)
chain: MGSSHHHHHHSSGENLYFQGSAMPGEEVLESSQEALHVTERKYLKRDWCKTQPLKQTIHEEGCNSRTIINRFCYGQCNSFYIPRHIRKEEGSFQSCSFCKPKKFTTMMVTLNCPELQPPTKKKRVTRVKQCRCISIDLD

What was measured:
Test in all cases: cell-based or functional assay
[1] = biological target: T1, recombinant human Gremlin-1 (human, UniProt O60565 25-184)
T1 sequence: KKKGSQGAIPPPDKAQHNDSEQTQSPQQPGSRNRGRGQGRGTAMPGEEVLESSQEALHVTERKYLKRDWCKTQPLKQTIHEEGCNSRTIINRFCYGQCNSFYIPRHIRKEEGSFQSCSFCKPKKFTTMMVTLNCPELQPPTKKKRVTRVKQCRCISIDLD

[2] = biological target: T2, mouse Gremlin (mouse, UniProt O70326 25-184)
T2 sequence (looked up): T1 sequence with Q27P, N33T

[3] = biological target: T3, BMP4/7 heterodimer (human, UniProt P12644 293-408; P18075 293-431)
T3 sequence (looked up) 1: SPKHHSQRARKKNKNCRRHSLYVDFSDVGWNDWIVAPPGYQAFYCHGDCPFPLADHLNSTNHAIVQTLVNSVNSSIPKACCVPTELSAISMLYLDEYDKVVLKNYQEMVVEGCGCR
T3 sequence (looked up) 2: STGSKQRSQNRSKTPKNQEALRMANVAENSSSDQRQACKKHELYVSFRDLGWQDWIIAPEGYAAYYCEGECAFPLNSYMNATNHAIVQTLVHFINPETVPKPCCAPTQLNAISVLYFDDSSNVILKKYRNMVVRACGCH

| Binder | IC50, restoration of BMP signalling blocked by human Gremlin, HEK-ID1 reporter gene assay [1] [nM] | IC50, restoration of BMP signalling blocked by mouse Gremlin, HEK-ID1 reporter gene assay [2] [nM] | IC50 (geometric mean, N=2), inhibition of BMP4/7 signalling, Hek-Id1 reporter gene assay [3] [nM] |
| --- | --- | --- | --- |
| B1 | 1.3 | 0.2 |  |
| B2 |  |  | 1.7 |
